Reference: US20260053942A1 (Astellas, published 2026)

Molecular target: T1, human TROP2 as used in the Biacore measurements (human, UniProt P09758 27-274)
T1 sequence: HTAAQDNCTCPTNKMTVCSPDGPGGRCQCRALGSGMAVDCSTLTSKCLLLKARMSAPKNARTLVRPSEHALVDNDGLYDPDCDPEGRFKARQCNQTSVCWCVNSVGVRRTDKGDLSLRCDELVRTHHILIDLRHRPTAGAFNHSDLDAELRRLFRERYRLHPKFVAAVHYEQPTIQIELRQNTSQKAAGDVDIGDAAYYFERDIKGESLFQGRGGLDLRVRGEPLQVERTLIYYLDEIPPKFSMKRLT
Assay: SPR (Biacore), format not stated

B1: 2293-C04, affinity matured anti-Trop2 antibody from a synthetic ribosome display human antibody library (antibody, V domains shown)
VH: EVQLVESGGGLVQPGGSLRLSCAASGFNISNKWIHWVRQAPGKGLEWVGWIAPSSGDTDYADSVKGRFTISADTSKNTAYLQMNSLRAEDTAVYYCAREGYNWYWYVLDYWGQGTLVTVSS
VL: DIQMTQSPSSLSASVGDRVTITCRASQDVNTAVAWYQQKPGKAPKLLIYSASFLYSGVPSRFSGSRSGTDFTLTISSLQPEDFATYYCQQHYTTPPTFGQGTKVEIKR
modifications: SEQ ID NO 17 is listed with pAcF at K42; the filing does not say whether the antibody measured by Biacore carried it
Kd: 1.1 nM
